# Patent US20110189729
# Target: lambda integrase Int-h/218 h/218 mutant (substitutions not given) (Bacteriophage lambda) (UniProt P03700)
# Assay: cell_activity
# Conditions: CHO-DG44
sequence,measurement,setting,value
CTGCTTTTTTATACTAAGTTGGCATTATAAAAAAGCATTGCTTATCAATTTGTTGCAACGAACAGGTCACTATCAGTCAAAATAAAATCATTATTTGATTTC / GAAATCAAATAATGATTTTATTTTGACTGATAGTGACCTGTTCGTTGCAACAAATTGATAAGCAATGCTTTTTTATAATGCCAACTTAGTATAAAAAAGCAG / CTGCTTTTTTATACTAACTTG / CAAGTTAGTATAAAAAAGCAG [attL ; attB],activity (% fluorescent cells),"attL x attB, with IHF and XIS, PCR verified",2.3
TCTGTTACAGGTCACTAATACCATCTAAGTAGTTGATTCATAGTGACTGCATATGTTGTGTTTTACAGTATTATGTAGTCTGTTTTTTATGCAAAATCTAATTTAATATATTGATATTTATATCATTTTACGTTTCTCGTTCAGCTTTTTTATACTAAGTTGGCATTATAAAAAAGCATTGCTTATCAATTTGTTGCAACGAACAGGTCACTATCAGTCAAAATAAAATCATTATTTGATTTC / GAAATCAAATAATGATTTTATTTTGACTGATAGTGACCTGTTCGTTGCAACAAATTGATAAGCAATGCTTTTTTATAATGCCAACTTAGTATAAAAAAGCTGAACGAGAAACGTAAAATGATATAAATATCAATATATTAAATTAGATTTTGCATAAAAAACAGACTACATAATACTGTAAAACACAACATATGCAGTCACTATGAATCAACTACTTAGATGGTATTAGTGACCTGTAACAGA / TCTGTTACAGGTCACTAATACCATCTAAGTAGTTGATTCATAGTGACTGCATATGTTGTGTTTTACAGTATTATGTAGTCTGTTTTTTATGCAAAATCTAATTTAATATATTGATATTTATATCATTTTACGTTTCTCGTTCAGCTTTTTTATACTAACTTG / CAAGTTAGTATAAAAAAGCTGAACGAGAAACGTAAAATGATATAAATATCAATATATTAAATTAGATTTTGCATAAAAAACAGACTACATAATACTGTAAAACACAACATATGCAGTCACTATGAATCAACTACTTAGATGGTATTAGTGACCTGTAACAGA [attP ; attR],activity (% fluorescent cells),"attP x attR, with IHF and XIS",2.3
GCTGTTACAGGTCACTAATACCATCTACGTAGTTGATTCATATTGTCTGCATATCTTGTGTTTTACAGTATTATCTAGTCTGTTTTTTATCCAAAATCTAATTTATTATATTGATATTTATATCATTTTACGTTTCTCGTTCAGCTTTTTTATACTAAGTTGGCATTATAAAAAAGCATTGCTTATCAATTTGTTGCAACGAACAGGTCACTATCAGTCAAAATATAATCATTATTTGATTTC / GAAATCAAATAATGATTATATTTTGACTGATAGTGACCTGTTCGTTGCAACAAATTGATAAGCAATGCTTTTTTATAATGCCAACTTAGTATAAAAAAGCTGAACGAGAAACGTAAAATGATATAAATATCAATATAATAAATTAGATTTTGGATAAAAAACAGACTAGATAATACTGTAAAACACAAGATATGCAGACAATATGAATCAACTACGTAGATGGTATTAGTGACCTGTAACAGC / CTGCTTTTTTATACTAACTTG / CAAGTTAGTATAAAAAAGCAG [attP.b ; attB],activity (% fluorescent cells),"attP.b x attB, with IHF, 0.3% without IHF plasmid",1.2
TCTGTTACAGGTCACTAATACCATCTAAGTAGTTGATTCATAGTGACTGCATATGTTGTGTTTTACAGTATTATGTAGTCTGTTTTTTATGCAAAATCTAATTTAATATATTGATATTTATATCATTTTACGTTTCTCGTTCAGCTTTTTTATACTAAGTTGGCATTATAAAAAAGCATTGCTTATCAATTTGTTGCAACGAACAGGTCACTATCAGTCAAAATAAAATCATTATTTGATTTC / GAAATCAAATAATGATTTTATTTTGACTGATAGTGACCTGTTCGTTGCAACAAATTGATAAGCAATGCTTTTTTATAATGCCAACTTAGTATAAAAAAGCTGAACGAGAAACGTAAAATGATATAAATATCAATATATTAAATTAGATTTTGCATAAAAAACAGACTACATAATACTGTAAAACACAACATATGCAGTCACTATGAATCAACTACTTAGATGGTATTAGTGACCTGTAACAGA / TCTGTTACAGGTCACTAATACCATCTAAGTAGTTGATTCATAGTGACTGCATATGTTGTGTTTTACAGTATTATGTAGTCTGTTTTTTATGCAAAATCTAATTTAATATATTGATATTTATATCATTTTACGTTTCTCGTTCAGCTTTTTTATACTAAGTTGGCATTATAAAAAAGCATTGCTTATCAATTTGTTGCAACGAACAGGTCACTATCAGTCAAAATAAAATCATTATTTGATTTC / GAAATCAAATAATGATTTTATTTTGACTGATAGTGACCTGTTCGTTGCAACAAATTGATAAGCAATGCTTTTTTATAATGCCAACTTAGTATAAAAAAGCTGAACGAGAAACGTAAAATGATATAAATATCAATATATTAAATTAGATTTTGCATAAAAAACAGACTACATAATACTGTAAAACACAACATATGCAGTCACTATGAATCAACTACTTAGATGGTATTAGTGACCTGTAACAGA [attP ; attP],activity (% fluorescent cells),"attP x attP, no IHF plasmid",1.9
CTGCTTTTTTATACTAAGTTGGCATTATAAAAAAGCATTGCTTATCAATTTGTTGCAACGAACAGGTCACTATCAGTCAAAATATAATCATTATTTGATTTC / GAAATCAAATAATGATTATATTTTGACTGATAGTGACCTGTTCGTTGCAACAAATTGATAAGCAATGCTTTTTTATAATGCCAACTTAGTATAAAAAAGCAG / GCTGTTACAGGTCACTAATACCATCTATGTAGTTGATTCATATTGTCTGCATATCTTGTGTTTTACAGTATTATCTAGTCTGTTTTTTATCCAAAATCTAATTTATTATATTGATATTTATATCATTTTACGTTTCTCGTTCAGCTTTTTTATACTAACTTG / CAAGTTAGTATAAAAAAGCTGAACGAGAAACGTAAAATGATATAAATATCAATATAATAAATTAGATTTTGGATAAAAAACAGACTAGATAATACTGTAAAACACAAGATATGCAGACAATATGAATCAACTACATAGATGGTATTAGTGACCTGTAACAGC [attL.a ; attR.a],activity (% fluorescent cells),"attL.a x attR.a, with IHF and XIS, PCR verified",2.3
GCTGTTACAGGTCACTAATACCATCTACGTAGTTGATTCATATTGTCTGCATATCTTGTGTTTTACAGTATTATCTAGTCTGTTTTTTATCCAAAATCTAATTTATTATATTGATATTTATATCATTTTACGTTTCTCGTTCAGCTTTTTTATACTAAGTTGGCATTATAAAAAAGCATTGCTTATCAATTTGTTGCAACGAACAGGTCACTATCAGTCAAAATATAATCATTATTTGATTTC / GAAATCAAATAATGATTATATTTTGACTGATAGTGACCTGTTCGTTGCAACAAATTGATAAGCAATGCTTTTTTATAATGCCAACTTAGTATAAAAAAGCTGAACGAGAAACGTAAAATGATATAAATATCAATATAATAAATTAGATTTTGGATAAAAAACAGACTAGATAATACTGTAAAACACAAGATATGCAGACAATATGAATCAACTACGTAGATGGTATTAGTGACCTGTAACAGC / GCTGTTACAGGTCACTAATACCATCTACGTAGTTGATTCATATTGTCTGCATATCTTGTGTTTTACAGTATTATCTAGTCTGTTTTTTATCCAAAATCTAATTTATTATATTGATATTTATATCATTTTACGTTTCTCGTTCAGCTTTTTTATACTAAGTTGGCATTATAAAAAAGCATTGCTTATCAATTTGTTGCAACGAACAGGTCACTATCAGTCAAAATATAATCATTATTTGATTTC / GAAATCAAATAATGATTATATTTTGACTGATAGTGACCTGTTCGTTGCAACAAATTGATAAGCAATGCTTTTTTATAATGCCAACTTAGTATAAAAAAGCTGAACGAGAAACGTAAAATGATATAAATATCAATATAATAAATTAGATTTTGGATAAAAAACAGACTAGATAATACTGTAAAACACAAGATATGCAGACAATATGAATCAACTACGTAGATGGTATTAGTGACCTGTAACAGC [attP.b ; attP.b],activity (% fluorescent cells),"attP.b x attP.b, with IHF, 0.4% without IHF plasmid, 2% in Example 2 cotransfection without IHF (p190)",1.5
